Columns and labels:
[1] = target: T1, Human TGF-β3 (human, UniProt P10600 301-412); test: ELISA, plate coated with human TGF-β3
T1 construct: also called TGF433 [sic]
T1 sequence (looked up): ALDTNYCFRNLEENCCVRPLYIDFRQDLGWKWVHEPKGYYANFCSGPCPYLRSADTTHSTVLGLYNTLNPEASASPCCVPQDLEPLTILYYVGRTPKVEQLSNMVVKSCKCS
Experimental: (§1) The binding of antibodies to human TGF-β1, TGF-β2 and TGF-β3 was determined by ELISA. Plates were coated with human TGF-β1, TGF-β2 or TGF-β3 overnight at 4° C., respectively. After blocking and washing, various concentrations of testing antibodies were added to the plates and incubated at room temperature for 1 hour. The plates were then washed and incubated with HRP-labeled goat anti-human IgG antibody (Bethyl) for 1 hour. After washing, TMB substrate was added and the color reaction was stopped by 2M HCl. The absorbance at 450 nm and 540 nm was read using a microplate reader (SpectraMax M5e).

[2] = target: T2, Cynomolgus monkey (cyno) PD-L1 ECD antigen His tagged (cynomolgus monkey, UniProt G7PSE7 19-238); test: SPR (Biacore 8K), antibody captured by anti-human IgG Fc, PD-L1 as analyte, 1:1 model
T2 construct: also called Cyno PD-L1 (SPR analyte)
Experimental: (§2) Antibody was captured on an anti-human IgG Fc antibody immobilized CM5 sensor chip (GE). Human or cyno PD-L1 at different concentrations were injected over the sensor chip at a flow rate of 30 μL/min for an association phase of 180 s, followed by 3600 s dissociation. Mouse PD-L1 at different concentrations were injected over the sensor chip at a flow rate of 30 μL/min for an association phase of 120 s, followed by 1200 s dissociation. The chip was regenerated by 10 mM glycine (pH 1.5) after each binding cycle.
(§3) The sensorgrams of blank surface and buffer channel were subtracted from the test sensorgrams. […] The experimental data was fitted by 1:1 model using Langmiur analysis. Molecular weight of 40 kDa was used to calculate the molar concentration of human, mouse and cyno PD-L1.

[3] = target: T3, Human PD-L1 extracellular domain (ECD) antigen His tagged (human, UniProt Q9NZQ7 19-238); test: as above
T3 construct: extracellular domain; The SPR and the PD-L1-coated ELISA say only 'human PD-L1'; also called human PD-L1 ECD protein; Human PD-L1 (SPR analyte); not shown: His tag
Experimental: as §2, §3

[4] = target: T4, Human TGF-β1 (human, UniProt P01137 279-390); test: ELISA, plate coated with human TGF-β1, antibody titrated, HRP goat anti-human IgG
T4 construct: 22 kDa was used for the molar concentration in SPR
Experimental: as §1

[5] = target: T5, Human TGF-β2 (human, UniProt P61812 303-414); test: SPR (Biacore 8K), antibody immobilized on CM5, TGFβ as analyte, 1:1 model; SPR with WT1122 as ligand on the chip and soluble TGF-β2 as analyte: binds
T5 sequence (looked up): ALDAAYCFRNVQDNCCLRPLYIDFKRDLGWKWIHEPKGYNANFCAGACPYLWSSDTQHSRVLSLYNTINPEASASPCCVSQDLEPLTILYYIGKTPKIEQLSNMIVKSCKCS
Experimental: (§4) Antibody binding affinity to TGFβ was detected by SPR assay using Biacore 8K. Each antibody was immobilized on CM5 sensor chip (GE). Human TGFβ1 and TGFβ3 at different concentrations were injected over the sensor chip at a flow rate of 50 uL/min for an association phase of 240 s, followed by 1200 s dissociation. Human TGFβ2 at different concentrations were injected over the sensor chip at a flow rate of 50 uL/min for an association phase of 240 s, followed by 300 s dissociation. The chip was regenerated by 10 mM glycine (pH 1.5) after each binding cycle.
(§5) The sensorgrams of blank surface and buffer channel were subtracted from the test sensorgrams. The experimental data was fitted by 1:1 model using Langmiur analysis. Molecular weight of 22 kDa, 24 kDa and 22 kDa were used to calculate the molar concentration of analyte TGFβ1, TGFβ2 and TGFβ3, respectively. The results are shown in […]

[6] = target: T1, Human TGF-β3; test: ELISA, plate coated with human TGF-β3, antibody titrated, HRP goat anti-human IgG
Experimental: as §1

[7] = target: T6, Human PD-L1, full length, on transfected cells (W315-CHO-K1.hProl.C11) (human, UniProt Q9NZQ7 19-290); test: competition FACS: blocks mFc tagged human PD-1 binding to human PD-L1 expressing cells
T6 construct: whole, on cells; Also used here for the human PD-L1 on the artificial APC (CHO-K1 with human PD-L1 and OKT3 scFv) of the reporter gene assay; also called hPD-L1; cell surface human PD-L1
Experimental: MFI of the cells was measured by a flow cytometer and analyzed by FlowJo.

[8] = target: T4, Human TGF-β1; test: ELISA, plate coated with human TGF-β1
Experimental: as §1

[9] = target: Human FcRn (human, UniProt P55899 24-297; P61769 21-119); test: SPR (Biacore 8K), antibody immobilized on CM5, human FcRn as analyte, steady-state model, pH 6.0
Experimental: Each antibody was immobilized on CM5 sensor chip (GE). […] The chip was then regenerated by 10 mM glycine (pH 1.5) after each binding cycle. The sensorgrams of blank surface and buffer channel were subtracted from the test sensorgrams.

[10] = target: T5, Human TGF-β2; test: ELISA, antibody immobilized, soluble TGF-β2 titrated; ELISA with antibody immobilized and soluble TGF-β2 titrated: binds
Experimental: The binding of antibody to human TGF-β2 was also determined by ELISA immobilized with testing antibodies. After blocking and washing, various concentrations of TGF-β2 were added to the plates and incubated at room temperature for 1 hour. The plates were then washed and incubated with biotinylated TGF-β2 detection antibody (R&D, DY240) for 1 hour, followed by streptavidin-HRP for 1 hour. After washing, TMB substrate was added and the color reaction was stopped by 2M HCl. The absorbance at 450 nm and 540 nm was read using a microplate reader (SpectraMax M5e).

[11] = target: T6, Human PD-L1, full length, on …; test: FACS on human PD-L1 expressing CHO-K1 cells
Experimental: (§6) Various concentrations of testing antibodies were incubated with hPD-L1 expressing W315-CHO-K1.hProl.C11 cells at 4° C. for 1 hour. After washing, the cells were incubated with PE-labeled goat anti-human IgG-Fc antibody (Jackson Immuno Research). Finally, the MFI of the cells was measured by a flow cytometer and analyzed by FlowJo.

[12] = target: T7, Mouse PD-L1 (soluble SPR analyte) (mouse, UniProt Q9EP73 19-239, limits assumed); test: SPR (Biacore 8K), antibody captured by anti-human IgG Fc, mouse PD-L1 as analyte, 0-300 s curves fitted
T7 construct: 40 kDa used for molarity
Experimental: as §2, §3

[13] = target: T1, Human TGF-β3; test: SPR (Biacore 8K), antibody immobilized on CM5, TGFβ as analyte, 1:1 model
Experimental: as §4, §5

[14] = target: T4, Human TGF-β1; test: as above
Experimental: as §4, §5

[15] = target: T4, Human TGF-β1; test: cell-based or functional assay
[16] = target: T6, Human PD-L1, full length, on …; test: cell-based or functional assay
[17] = target: T8, Cynomolgus monkey PD-L1, full length, on transfected cells (W315-293F.cynoPro1.2A2) (cynomolgus monkey, UniProt G7PSE7 19-290); test: FACS on cyno PD-L1 expressing 293F cells
T8 construct: also called cyno PD-L1; cell surface cyno PD-L1
Experimental: (§7) The binding of testing antibodies to cynomolgus monkey or mouse PD-L1 was determined by FACS. Various concentrations of testing antibody were incubated with cynomolgus PD-L1-expressing W315-293F.cynoPro1.2A2 cells or mouse PD-L1 expressing W315-293F.mPro1.C1 cells at 4° C. for 1 hour, and then the binding of antibodies to the surface of the cells was detected by PE-labeled goat anti-human IgG-Fc antibody (Jackson Immuno Research). MFI of the cells was measured by a flow cytometer and analyzed by FlowJo.

[18] = target: T4, Human TGF-β1; test: dual binding ELISA coating with TGF-β1, WT1122 after 0 to 14 days in human serum at 37 °C, detected with biotinylated human PD-L1 ECD and streptavidin-HRP [upper panel]
Experimental: After blocking and washing, various concentrations of testing antibodies were added to the plates and incubated at room temperature for 1 hour. […] After washing, TMB substrate was added and the color reaction was stopped by 2M HCl. The absorbance at 450 nm and 540 nm was read using a microplate reader (SpectraMax M5e).
(§8) The samples were quickly thawed immediately prior to the stability test.

[19] = target: T9, Mouse PD-L1, full length, on transfected cells (W315-293F.mPro1.C1) (mouse, UniProt Q9EP73 19-290); test: FACS on mouse PD-L1 expressing 293F cells
T9 construct: whole, on cells; also called cell surface mouse PD-L1
Experimental: as §7

[20] = target: T6, Human PD-L1, full length, on …; test: PD-L1 FACS on human PD-L1 expressing cells, WT1122 after 0 to 14 days in human serum at 37 °C [lower panel]
Experimental: as §6, §8

T3 sequence (Q9NZQ7 19-238): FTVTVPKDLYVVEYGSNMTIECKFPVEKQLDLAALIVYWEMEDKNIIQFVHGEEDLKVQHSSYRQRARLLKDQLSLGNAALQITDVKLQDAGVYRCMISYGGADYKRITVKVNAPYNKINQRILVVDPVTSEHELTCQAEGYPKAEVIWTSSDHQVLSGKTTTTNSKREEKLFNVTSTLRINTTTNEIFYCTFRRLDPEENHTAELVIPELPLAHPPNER
T2 sequence (G7PSE7 entry or part of it limits assumed): as the sequence (Q9NZQ7 19-238) above, with A33T, A34S, S62N, R68Q, Q82R, F173L, T185A, T192I, H215L counted along it
T4 sequence (P01137 279-390 limits assumed): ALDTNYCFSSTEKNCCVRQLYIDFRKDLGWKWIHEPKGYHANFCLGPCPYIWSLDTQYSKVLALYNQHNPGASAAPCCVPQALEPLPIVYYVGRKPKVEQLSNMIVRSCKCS
T6 sequence (Q9NZQ7 19-290): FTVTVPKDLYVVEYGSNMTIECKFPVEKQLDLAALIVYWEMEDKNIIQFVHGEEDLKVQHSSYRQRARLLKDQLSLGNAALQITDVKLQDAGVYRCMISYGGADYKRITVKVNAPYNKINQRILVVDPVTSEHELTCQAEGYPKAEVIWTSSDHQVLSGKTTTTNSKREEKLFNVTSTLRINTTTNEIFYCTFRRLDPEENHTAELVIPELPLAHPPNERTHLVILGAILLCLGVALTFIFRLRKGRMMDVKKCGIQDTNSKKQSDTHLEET
Sequence of Human FcRn (P55899 24-297 limits assumed, chain 1 of 2): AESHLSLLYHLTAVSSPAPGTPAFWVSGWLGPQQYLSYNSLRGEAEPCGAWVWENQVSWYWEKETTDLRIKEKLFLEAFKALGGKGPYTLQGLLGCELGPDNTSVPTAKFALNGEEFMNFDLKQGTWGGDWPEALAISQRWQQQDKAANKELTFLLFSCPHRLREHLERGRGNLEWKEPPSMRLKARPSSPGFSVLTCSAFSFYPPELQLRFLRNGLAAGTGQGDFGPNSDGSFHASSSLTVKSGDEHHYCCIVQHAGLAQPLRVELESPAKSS
Sequence of Human FcRn (P61769 21-119 limits assumed, chain 2 of 2): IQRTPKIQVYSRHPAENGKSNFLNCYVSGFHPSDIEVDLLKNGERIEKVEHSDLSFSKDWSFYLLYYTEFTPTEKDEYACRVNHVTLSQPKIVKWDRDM
T9 sequence (Q9EP73 19-290): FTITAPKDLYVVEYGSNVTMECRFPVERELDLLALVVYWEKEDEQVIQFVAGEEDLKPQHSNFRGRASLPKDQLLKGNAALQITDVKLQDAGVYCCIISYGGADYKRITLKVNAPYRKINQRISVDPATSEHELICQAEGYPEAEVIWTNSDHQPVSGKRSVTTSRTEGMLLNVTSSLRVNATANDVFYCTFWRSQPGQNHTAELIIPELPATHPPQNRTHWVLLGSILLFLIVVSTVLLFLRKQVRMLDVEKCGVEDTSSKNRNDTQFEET
T8 sequence (G7PSE7 entry or part of it limits assumed): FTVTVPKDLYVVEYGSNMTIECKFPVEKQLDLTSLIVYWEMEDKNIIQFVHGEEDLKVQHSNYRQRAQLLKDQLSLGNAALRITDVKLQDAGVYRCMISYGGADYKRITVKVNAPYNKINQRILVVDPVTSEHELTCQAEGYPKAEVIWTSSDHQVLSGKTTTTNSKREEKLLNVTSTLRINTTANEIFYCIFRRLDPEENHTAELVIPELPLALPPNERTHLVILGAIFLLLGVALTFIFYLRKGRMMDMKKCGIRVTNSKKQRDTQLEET
T7 sequence (Q9EP73 19-239 limits assumed): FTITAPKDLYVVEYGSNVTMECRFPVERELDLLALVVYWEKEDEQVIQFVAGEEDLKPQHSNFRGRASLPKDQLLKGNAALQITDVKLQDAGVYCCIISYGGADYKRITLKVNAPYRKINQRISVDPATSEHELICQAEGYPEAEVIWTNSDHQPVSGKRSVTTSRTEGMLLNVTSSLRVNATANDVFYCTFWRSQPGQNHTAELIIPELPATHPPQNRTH

B1: WT1122-U14T1.G15-1.uIgG1 (antibody)
heavy: not shown
light: SYELTQPPSVSVSPGQTASITCSGSELPKRYAYWYQQKPGQSIVRVIYKDSERPSGISERFSGSSSGNTATLTISGTQAMDEADYYCSSTYGDRKLPIFGGGTKLTVLGQPKAAPSVTLFPPSSEELQANKATLVCLISDFYPGAVTVAWKADSSPVKAGVETTTPSKQSNNKYAASSYLSLTPEQWKSHKSYSCQVTHEGSTVEKTVAPTECS
EC50 [1]: 0.8 nM
Kd [2]: 0.446 nM
koff [2]: 0.00135 s⁻¹
kon [2]: 3.03e+06 M⁻¹ s⁻¹
Kd [3]: 0.695 nM
koff [3]: 0.00168 s⁻¹
kon [3]: 2.41e+06 M⁻¹ s⁻¹
EC50 (read off the curve) [4]: ~0.5 nM
Kd [5]: 0.369 nM
koff [5]: 0.0149 s⁻¹
kon [5]: 4.02e+07 M⁻¹ s⁻¹
EC50 (read off the curve) [6]: ~0.8 nM
IC50 [7]: 0.04 nM
EC50 [8]: 0.5 nM
Kd [9]: 2570 nM
EC50 [10]: 0.07 nM
EC50 [11]: 0.7 nM
Kd [12]: 1080 nM
Kd [13]: 0.00162 nM
koff [13]: 9.35e-05 s⁻¹
kon [13]: 5.78e+07 M⁻¹ s⁻¹
Kd [14]: 0.00165 nM
koff [14]: 0.000206 s⁻¹
kon [14]: 1.25e+08 M⁻¹ s⁻¹
TGF-β1 blockade IC50, SBE luciferase reporter gene assay (RGA) [15]: 1.2 nM
hPD-1/PD-L1 signaling blockade IC50, NFAT luciferase reporter gene assay (RGA) [16]: 0.31 nM
EC50 [17]: 1.08 nM
EC50 (read off the curve) [18]: ~0.4 nM
EC50 [19]: 1.2 nM
EC50 (read off the curve) [20]: ~0.2 nM

— patent publication US20230072133A1 (WUXI BIOLOGICS IRELAND, published 2023)
